Data published in patent publication US20200397816A1, “METHODS TO TREAT INFLAMMATORY AND SMOOTH MUSCLE CELL PROLIFERATION DISORDERS” (THE TRUSTEES OF INDIANA UNIVERSITY, priority 2019, published 2020).
Entries after “also recorded” stand apart in the source; their conditions may differ.

Tests used:
SphK1 = SphK1 transcripts qRT-PCR in RAW 264.7 macrophages; type: cell-based, mouse
Description: (§1) RAW 264.7 (ATCC) mouse macrophages and Human Embryonic Kidney (HEK) 293T cells were cultured in DMEM media with 10% fetal bovine serum […] and glutamine HEPES buffer and beta-mercaptoethanol were added to the growth medium used for RAW 264.7 macrophages. […]
(§2) Total RNA was extracted with TriZol using standard RNA extraction protocol and reverse transcribed with SuperScript III Reverse Transcriptase (Thermo Fischer Scientific). SphK1, Tnf, Il6, EGR1, Gapdh, Hprt1 transcripts were quantified using PrimePCR SYBR Green assays from BioRad. […]
(§3) Total RNA was extracted with TriZol using standard RNA extraction protocol and reverse transcribed with SuperScript III Reverse Transcriptase (Thermo Fisher Scientific). SPHK1, Tnf, Il6, EGR1, Gapdh, Hprt1 transcripts were quantified using PrimePCR SYBR Green assays from BioRad.

Tnf = Tnf transcripts qRT-PCR in RAW 264.7 macrophages; type: cell-based, mouse; conditions: EMAP II time course
Description: as §1, §2, §3

EGR1 = EGR1 protein western blot and immunofluorescence in hPASMC; type: cell-based, human; conditions: SMCs
Description: RAW 264.7 (ATCC) mouse macrophages and Human Embryonic Kidney (HEK) 293T cells were cultured in DMEM media with 10% fetal bovine serum […] and glutamine HEPES buffer and beta-mercaptoethanol were added to the growth medium used for RAW 264.7 macrophages. Primary human pulmonary artery smooth muscle cells (hPASMC) purchased from Lonza (Walkersville, Md.) were cultured in complete growth medium containing smooth muscle growth media-2 (SmGM-2) with 10% FBS and growth factors provided as a kit by the supplier (Lonza, (Walkersville, Md.). THP-1 human monocyte cells were cultured in RPMI 1640 with 10% FBS and glutamine Cells were cultured in a humidified atmosphere with 5% CO2 at 370 C. For all studies passages 5-14 were used for RAW 264.7 and passages 5-10 were used for hPASMCs. For treatment studies, subconfluent cells plated in multi-well plates were serum starved and if required, pretreated for with inhibitors before stimulating with 2 μg/mL recombinant EMAP II.
After appropriate treatments, protein lysates were prepared by using RIPA buffer supplemented with phosphatase and protease inhibitors (Thermo Fischer Scientific). Alpha-tubulin was used as a loading control. For nuclear and cytoplasmic fractionation, NE-PER kit from Thermo Fischer Scientific was used. Western blots were performed according to standard methods and quantified using densitometry using Image Studio Lite software from LI-COR Biosciences.
(§4) Primary hPASMCs cells or human THP-1 macrophages were seeded in Nunc Lab-Tek™ II 4-well imaging plates (Thermo Fisher Scientific) chamber well slides and cultured in growth medium. After the serum starvation cells were stimulated with EMAP II. Treated cells were rinsed with PBS and fixed with 4% paraformaldehyde at room temperature for 15 min and permeabilized with 0.1% Triton X-100 at room temperature for 10 min After washing with PBS three times, the cells were incubated with EGR1, 1amin, or pSphK1 antibody at 40C overnight. The cells were then rinsed with PBS three times and subsequently incubated with respective secondary antibody conjugated with Alex Fluor 647 and 488 or Phalloidin 488 at room temperature for 1 h. The cells were rinsed with PBS three times and coverslips were mounted with SlowFade Gold Antifade Mountant with DAPI (Thermo Fischer Scientific) and the cells were examined under Olympus microscope with 40× for EGR1 expression and with 60× for pSphK1 water immersion.
Knockdown of endogenous EGR1 was carried out by transfecting with 25 nM final concentration of ON-TARGETplus siRNAs specific for EGR1 or non-targeting control purchased from GE Dharmacon (Lafayette,CO) using Viromer Blue (Lipocalyx) per manufacturer's instructions. Cells were stimulated with EMAP II 48 h post-transfection.
RAW 264.7 (ATCC) mouse macrophages and HEK-293T (ATCC) cells were cultured in DMEM media with 10% (v/v) fetal bovine serum (FBS) and 2 mM glutamine HEPES buffer and beta-mercaptoethanol were added to the growth medium used for RAW 264.7 macrophages. […]

pSphK1 = pSphK1 immunofluorescence in THP-1 macrophages; type: cell-based, human; conditions: THP1 macrophages; 1 hour EMAP II
Description: Few passages after thawing of THP-1 cell line, cells were seeded in Nunc Lab-Tek™ II 4-well imaging plates and treated with 100 nM Phorbol myristate acetate (InvivoGen, CA) for 3 days allowing THP-1 monocytes to differentiate into macrophages.
as §4, with “immersion. […]” for “immersion.”

B1: EMAP II: 6x-His tagged recombinant EMAP II, cleaved C-terminal peptide of AIMP1 (SEQ ID NO: 2), pro-inflammatory cytokine (protein)
chain: IAGSADSKPIDVSRLDLRIGCIITARKHPDADSLYVEEVDVGEIAPRTVVSGLVNHVPLEQMQNRMVILLCNLKPAKMRGVLSQAMVMCASSPEKIEILAPPNGSVPGDRITFDAFPGEPDKELNPKKKIWEQIQPDLHTNDECVATYKGVPFEVKGKGVCRAQTMSNSGIK
induction of SphK1 transcription compared to control (SphK1; EMAP II treated macrophages): about 4 times
time of peak SphK1 transcription after EMAP II stimulation (SphK1; macrophages): 3 h
Tnf transcription level (Tnf): increased
EGR1 expression in whole cell lysates (EGR1; 1 to 2 hours following EMAP II): significant upregulation
upregulation of nuclear EGR1 expression (EGR1; EMAP II 2 μg/mL, at 1 hour): 2.5 fold
nuclear EGR1 expression by immunofluorescence vs control (EGR1; EMAP II 1 hour): significantly elevated
pSphK1 localization to the plasma membrane (pSphK1): stimulated translocation; also recorded: elevated levels of pSPHK1
